Experimental data taken from the nanobody polyreactivity screen of Harvey et al. (2022).

Assay: yeast display, Sf9 membrane polyspecificity reagent, FACS + sequencing; frameworks hold sequencing errors
How it was run: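 Nanobodies came from a synthetic yeast display library in Saccharomyces cerevisiae BJ5465, induced with galactose for 36–48 hours and stained for 1 hour at 4 °C with 10% biotinylated, detergent-solubilized Sf9 membrane reagent. Cells were enriched on streptavidin microbeads and then FACS-sorted, with low and high (top ~1%) gates set on anti-HA fluorescence for expression and streptavidin fluorescence for reagent binding. Each polyreactivity label reflects the gate a clone came from. Genes were amplified by colony PCR, sequenced by MiSeq 2 × 250 and filtered by CDR length.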

Sequence | polyreactivity (PSR sort gate)
QVQHVESGGGLVQAGGSLRLSCAASGRIYRKAMGWYRQAPGKERELVAVITRGGSTNYADSVKGRFTISRDNAKNSVYLQMNSLKPEDTAVYYCAATYSYRFSSFDYWGQGTQVTVSS | high polyreactivity
QVQLVESGGGLVQAGGSLRLSCAASGSIFQIYAMGWYRQAPGKERELVAAINSGGITKYADSVKGRFTISRDNAKNTVYLQMNSLKPEDTAVYYCAKRYGWPYGRFDYWGQGTQVTVSS | low polyreactivity
QVQLVESGGGLVQAGGSLRLSCAASGFTFKFNAMGWYRQAPGKERELVAAISYSGGSTYYADSVKGRFTISRDIAKNTVYVQMNSLKPEDTAVYYCAARAYWYGASYYYWGQGTQVTVSS | high polyreactivity
QVQLVESGGCLVQAGGSLRLSCAASGFTFRWYTMGWYRQAPGKERELVAAITGSGCTTYYADSVKGRFTISRDNAKNTVYLQMNSVKPEDTAVYYCAAQYFPSRGWSKGYDYWGHGTQVTVSS | high polyreactivity
QVQLVESGGGKVQAGGSLRLSCAATGRNFGVYDMGSYRHSPGKERELVAAITARGGSTYYADSVKGRFTISRDNAKNTVYLQMNSLKPEDTAVYYCAASAGSAGHSGGYWGQGTQVTVSS | high polyreactivity
QVQLVESGGGLVQAGGSLRLSCAASGSTFDRNVMGWYRQAPGKERELVAAISRVSSTNYADSVKGRFTISRDNAKNTVYLQMNSLKPEDTAVYYCNARRESYYQRYRVDYWGQGTQVTVSS | low polyreactivity
QVQLVESGGGLVQAGGSLRLSCAASGRTSDVYAMGWYRQAPGKERALVAAISSGGSTSYADSVKGRFTISRDNAKNTVNLQMNSLKPEDTAVYYCAADSSGQSRFGYWGQGTQVTVSS | low polyreactivity
QVQLVESGGGLVQAGGSLRLSCAASGSIFYNNVMGWYRQAPGKERELVAVISGGGSTNYADSVKGRFTISRDNAKNTDYLQMNSLKPEDTAVYYCAARGRYSYGDRYEYWGQGTQVTVSS | low polyreactivity
QVQLVESGGGLVQAGGSLRLSSAASGSIFYGNSMGWYRQAPGKERELVAAISQSGGSTYYADSVKGRFTISRDNAKNTVYLQMNSLKPEDTAVYYCAAYTPYATWRYDYWGQGTQVTVSS | low polyreactivity
QVQLVESGGGLVQAGGSLRLSCAASGSTFYDYAMGWSRQAPGKERELVAAINGNGDSTYYADSVKGRFTISRDNAKITVYLLMNSLKPEDTAVYDCAAYLGWGYDYWGQGTQVTVSS | low polyreactivity
QVQLVESGGGLVQAGGSLRISCAASGSIFVHYAMGWYIPAPGKERELVAAITTSGGSTYYADSVKGRFTISRDNAKNTVYLQMNSLKPEDTAVYYCTARAVRYPFTGNYWGQGTQVTVSS | high polyreactivity
QVQLVESGGGLVQAGGSLRLSCAASGRTFDYYTMGWYRQAPGKERELVAAISRSSGRTYYADSVKGRFTISRDNAKNTVYLQMNSLKPEDTAVYYCAARYYLSVRYGYWGQGTQVTVSS | high polyreactivity
QVQLVESGGGLVQAGGSLRLSCAASGFTFTQYAMGWYGQAPGKEREFVAAITASGGSTYYADSVKGRFTISRDNAKNTVYLQMNSLKPEDTAVYYCAAKGRPDGKYDYWGQGTQVTVSS | high polyreactivity
QVQLVESGGGLVKAGGSLRLSCAASGFIFKRNVMGWYRQAPGKETELVARISSRGGSTYYADSVKGRFTISRDNAKNTVYLQMNSLKPEDTEVYYCAADFGTIRVYSGDYWGQGTQVTVSS | high polyreactivity
QVQIVESGGGLVQAGGSHRLSCADSGRTFGVNTMGWYRQAPAKERQFVAAISSRSGSTYYADSVKGRFTISRDNAKNNVYLQMNSLKPEDTAVDYCAKGPLPRAGVKFDYWGHGTQVTVSS | low polyreactivity
QVQLVESGGGLVQAGGSLRLSCAASGFNITYVMGWYRQAPGKERELVAVITNGGSTYYADSVKGRFTISRDNAMNTVYLLMNSLKPEDTAVYYCAARARFRYDSYYYWGQGTQLTVSS | high polyreactivity
QVQLVESGGGLVQAGGSLRLSCAASGRTFRPYAMGWYRQAPGKERELVAAITSGVSTYYADSVKGRFTISRDNAKNTVYLQMNSLKPEDTAVYYCNKVISREVGIRMDYWGQGTQVTVSS | high polyreactivity
QVQLVESGGGLVQAAGSLRLSCAASGRTFYDNAMGWYRQAPGKERELVAAITKSGGRTYYVDSVKGRFTISRDNAKNTVYLQMNSLKPEDTAVYYCAASWPNYLYEYWGQGTQVTVSS | high polyreactivity
QVQLVESGGGLVQAGGSLRLSCAASGATFAQYAMGWYRQAPGKERELVAAISRGGGSTYCADSVKGRFTISRDNAKNTVYLQMNSLKPEDTAVYYCAADPRYRVTLGFDYWGQGSQVTVSS | high polyreactivity
QVQLVESGGGLVQAGGSLRLSCAASGLIFISYAMGWYRQAPGKERELVAAITRSAGTTYYADSVKGRFTISRDNAKNTVYLQMNSLKPEDTAVYYCNALYPITPEDYWGQGTQVTVSS | low polyreactivity
QVQLVESGGGLVQAGGSRSLSCAASGFTFQGNVMGWYTQAPGKERELVAAISGGGGRTYYADYVKGRFTISRDNAKYTVYLQMNSLIPEDTAVYYCIVRLLGSNRAGVRCDYWGQGTQVTVSS | high polyreactivity
QVQLVESGGGLVQAGGSLRLSCAASGFTFGEYAMGWYRQEPGKERELVATISSGVGTNYADSVKGRFTISRDNAKNTVYLQMNSLKPVDTAVYYCNARGRGSDVRVYVDEGDYWGQGTQVTVSS | low polyreactivity

Sequence | polyreactivity (PSR sort gate)
QVQLVESGGGLVQAGGSLRLSCAACGFTFYYYAMGWYRQAPGKERELVASISASGGITYYADSVKGRFTISRDNAKNTVYLQMNSLKPEDTAVYYCATRQGYRLYYWGQGTQVNVSS | high polyreactivity
QVQLVESGGGLVQAGGSLRLSCAASGFIFTWYAMGWYRQAPGKEREFVAAITSRGTSTYYADSVKGRFTISRDNAKNTVYLQMNSLKPEDTAVYYCAARASYTRRHVGRPYDYWGQGTQVTVSS | high polyreactivity
QVQLVESGGGLVQAGGSLRLICAASGLTFRPNSMGWFRQAPGKERELVAAITWLGGRTYYADSVKGRFTISRDNSKNTVYLQMNSLKPEDTEVYYCSADSPYRGRQCPLNYGGDYWGQGTQVTVSS | high polyreactivity
QFQLVDSGGGLVQAGGSLSLICAASGLIFYTYAMGWYRQAPGKERELVAAISRTRVSTYYADSVKGRFTISRDNAKNTVYLQMNSLKPEYTAVYYCATSRYLKLGYDYWGQGTQVTVSS | high polyreactivity
QVQLVESGVGLLQAGGSLSLSCSASGSTLYYAMGWYRQAPGKERELVASITFSTGSTYYADSVKGRFTISRDNAKNTVYLQMNSLKPEDTAVYYCATGVDTYYLTVEHDSWGQGTQVTVSS | low polyreactivity
QVQLEESGGGLVQAGGSLRLSCAASGRIFPYYPMGWYRQAPGKETELVATISGGGSTYYADSVKGRFTISRDNAKNTFYLQMNSLKPEDTAVYYCSARSWLRWASTPQWYRYEYWGQGTQVTVSS | low polyreactivity
QDQLVESRGGLVQAGGRLRLSCAASGSIFASNTIGWYRQAPGKEREVVAGITKIGSSTYYADSVKGRFTISRDNAKNTVYLQMNSLKPEDTAVYYCNAYGPNIYSARYDYWGQGTQVTVSS | low polyreactivity
QVQLVESGGGLVQAGGSLRLSCAASGSTSAAYAMGWYRQAPGKERELVAAISKRGGSTYYADSVKGRFTISRDNAKNTVYLQMNSLKPEDTAVYYCNKYHFPGYWSRFDYWGQGTQVTVSS | high polyreactivity
QVQLVESGGGLVQAGGSLRLSCAASGGIFVGNAMGWYRQAPGKERELVAAITYRGGRTYYADSVKGRFTISRDNAKNTVYLQMNSLKPEDTAVYYCNAYKQGGRSKYNYWGQGTQVTVSS | high polyreactivity
QVQLVESGGGFVQAGGSLSLSCAASGRIFGINAMLWYRQAPGKVRELVAAISSSGANTYYADSVKGRFTISRDNAKNTVYLQMNRLKPEDTAVYYCATKASSYQSPYYYWGQGTQVTVSS | high polyreactivity
QVQLVESGGGLVQAGGRLRLSCAASGSTIPRNAMGWYRHAPGKERELVAAITSGGSTNYADSVKGRFTISRDNAKNTVYLQMNSLKPEDTAVYYCAADEQVNTQYVVWGDYWGQGTQVTVSS | low polyreactivity
QVQLVESGGGLVQAGGSLRLSCAASVRIFQRNVMGWYRQAPGKEWELVATINWSGASTYYADSVKGRFTISRDNAKNTVYLQMNSLTPEDTAVYYCAKDGHYPLVYLAFDYWGQGTQVTVSS | low polyreactivity
QVQLVESGGGLVQAGGSLRLSCAASGFIFKRYAMGWYRQAPGKERELVAAITGSGSRTYYADSVKGRFTISRDNAKNTVYLQMNSLKPEDTAVYYCNKDRRPTADFGYWGQGTQVTVSS | high polyreactivity
QVQLVESGGALDQAGGRLPLSSAASGSIFRINAMRLYRQAPGKVRELVAAISWSGGSTYYADSVKGRFTISRDNAKNTVYLQMNSLKQEDTAVYYCADVVSKSSFDYWVQGTQVTVSS | low polyreactivity
QVQLVESGGGLVQAGGSLRLSCAASGSTFRWNAMGWYRQAPGKERELVAAISSGGRTYYADSVKGRFTISRDNAKNTVYLQMNSLKPEDTAVYYCSARTSRYYYYPYAFYWGQGTQVSVSS | high polyreactivity
QVQLVESGGGLVQAGGSLRLSCAASGRIFVGYPMGWYRQAPGKERELVAAITSGGSTYYADSVKGRFTISRDNAKNTVSFQMNSLKPEDTAVYYCNAAYQFDSYHLGGYRYEYWGQGTQVTVSS | low polyreactivity
QVQLVESWGGLVQAGGSLRLSCAASGSTISDNAMGWYRQAPGKERELVATIDDDGSTYYADSVKGRFTISRDNAKKTVYLQMNSLKPEDTAVYYCAAEWYGGYPFGYWGQGTQVTVSS | low polyreactivity
QVQLVESGGGLVQAGGSLRLSCAASGSIFSDYAMGWYRQAPGKERELVAAISGTGGGTYYADSVKGRFTISRDNAKNTVYLQMNSLKPEDTAVYYCAADYVFAWWGDYYWGQGTQVTVSS | high polyreactivity
QDQLVESGGGLVQAGGRLRLSCAASGFIFYSYVMGRYRQAPGKERELVASIRSRGGSTYYADSVKGRFTISRDNAKNTVYLQMNSLKPEDTAVYYCAADLYLSPSWYKYDYWGQGTQVTVSS | low polyreactivity
QVQLVESGGRLVQAGGSLRLSFAACGSILRDNSMGWYRQAPGKEREFVADIRGSYDSTYYADSVKGRFTISRDNAKHTVYLQMNSRKREDTAVYYCNRVDAWQDYDYWGLGTQVTVSS | low polyreactivity
QVQLVESGGGLVQAGGCLRKSCAASGFTFFSYARGWSRQAPGKERELVAGINSSGGSTNYADSVKGRFTISRDNAKNTVYLLMNSLKPEDTAVYYCNADLRSEYDYWGQGTQVTVSS | low polyreactivity
